From patent US20230285583A1, “LIQUID FORMULATION OF LONG-ACTING CONJUGATE OF GLUCAGON, GLP-1, AND GIP TRIGONAL AGONIST” (HANMI PHARM, CO., LTD., priority 2020, published 2023)
Bridge positions count the residues as written; N and C are the ends. Square brackets hold non-standard residues; d marks the D form. Ends that are not written are not given here. * marks the point of attachment. Acetyl(2-(4-imidazolyl)) = O=C(Cc1c[nH]cn1)*; Aib = CC(C)(N)C(=O)O

T1: human GIP receptor (human, UniProt P48546 22-466)
T1 sequence (looked up): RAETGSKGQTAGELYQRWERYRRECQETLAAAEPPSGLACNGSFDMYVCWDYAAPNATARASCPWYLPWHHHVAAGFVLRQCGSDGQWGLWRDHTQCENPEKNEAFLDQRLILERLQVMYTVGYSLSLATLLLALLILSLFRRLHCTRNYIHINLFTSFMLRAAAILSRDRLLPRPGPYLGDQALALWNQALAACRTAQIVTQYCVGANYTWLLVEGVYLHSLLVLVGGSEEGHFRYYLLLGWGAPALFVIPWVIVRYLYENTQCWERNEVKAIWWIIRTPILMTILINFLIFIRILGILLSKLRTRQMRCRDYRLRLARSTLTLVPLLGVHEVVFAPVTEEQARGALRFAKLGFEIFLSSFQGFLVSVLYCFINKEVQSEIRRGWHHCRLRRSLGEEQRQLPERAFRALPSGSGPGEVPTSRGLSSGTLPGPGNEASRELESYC

B1: trigonal agonist of SEQ ID NO: 8 (peptide)
peptide: H[Aib]QGTFTSDYSKYLDECRQKEFVQWLLNGGPSSGAPPPSG
modifications: bridge 16-20; not fully specified (bridges)
B2: trigonal agonist of SEQ ID NO: 41 (peptide)
peptide: Y[Aib]QGTFTSDYSKYLDEKRAKEFVQWLLDCHPSSGQPPPS
modifications: bridge 16-20; not fully specified (bridges); ends not checked
B3: trigonal agonist of SEQ ID NO: 10 (peptide)
peptide: Y[Aib]QGTFTSDYSKYLDEKRAKEFVQWLLDHHCSSGQPPPS
modifications: bridge 16-20; not fully specified (bridges)
B4: trigonal agonist of SEQ ID NO: 42 (peptide)
peptide: Y[Aib]QGTFTSDYSKALDEKAAKEFVNWLLDHHPSSGQPPPSC
modifications: bridge 16-20; not fully specified (bridges)
B5: trigonal agonist of SEQ ID NO: 46 (peptide)
peptide: Y[Aib]QGTFTSDYSKALDEKAAKDFVNWLLDQHPSSGQPPPSC
modifications: bridge 16-20; not fully specified (bridges)
B6: trigonal agonist of SEQ ID NO: 44 (peptide)
peptide: Y[Aib]QGTFTSDYSKALDEKAAKEFVQWLLDQHPSSGQPPPSC
modifications: bridge 16-20; not fully specified (bridges)
B7: trigonal agonist of SEQ ID NO: 4 (peptide)
peptide: H[Aib]QGTFTSDYSKYLDEKACKEFVQWLLAQ
modifications: bridge 16-20; not fully specified (bridges)
B8: trigonal agonist of SEQ ID NO: 5 (peptide)
peptide: H[Aib]QGTFTSDYSKYLDEKACKDFVQWLLDGGPSSGAPPPS
modifications: lactam 16-20
B9: trigonal agonist of SEQ ID NO: 38 (peptide)
peptide: [Acetyl(2-(4-imidazolyl))][Aib]EGTFTSDYSIAMDEIHQKDFVDWLLAEKC
modifications: bridge 16-20; not fully specified (bridges)
B10: trigonal agonist of SEQ ID NO: 9 (peptide)
peptide: Y[Aib]QGTFTSDYSKYLDEKRAKEFVQWLLDHHPSSGQPPPSC
modifications: lactam 16-20
B11: trigonal agonist of SEQ ID NO: 6 (peptide)
peptide: H[Aib]QGTFTSDYSKYLDEKRQKEFVNWLLAQKC
modifications: bridge 16-20; not fully specified (bridges)
B12: trigonal agonist of SEQ ID NO: 39 (peptide)
peptide: [Acetyl(2-(4-imidazolyl))][Aib]QGTFTSDYSKYLDEKRQKEFVNWLLAQKC
modifications: bridge 16-20; not fully specified (bridges)
B13: trigonal agonist of SEQ ID NO: 40 (peptide)
peptide: Y[Aib]QGTFTSDYSKYLDEKRAKEFVQWLLDHCPSSGQPPPS
modifications: bridge 16-20; not fully specified (bridges); ends not checked
B14: trigonal agonist of SEQ ID NO: 43 (peptide)
peptide: Y[Aib]QGTFTSDYSKALDEKAAKDFVNWLLDHHPSSGQPPPSC
modifications: bridge 16-20; not fully specified (bridges)
B15: trigonal agonist of SEQ ID NO: 36 (peptide)
peptide: {Acetyl(2-(4-imidazolyl))}-[Aib]EGTFTSDYSIAMDEIHQKDFVNWLLAQC
modifications: lactam 15-19
B16: trigonal agonist of SEQ ID NO: 12 (peptide)
peptide: H[Aib]QGTFTSDYSKYLDEKRQKEFVQWLLNTC
modifications: bridge 16-20; not fully specified (bridges)
B17: trigonal agonist of SEQ ID NO: 11 (peptide)
peptide: H[Aib]QGTFTSDYSKYLDEKRAKEFVQWLLDHHPSSGQPPPSC
modifications: bridge 16-20; not fully specified (bridges)
B18: trigonal agonist of SEQ ID NO: 45 (peptide)
peptide: Y[Aib]QGTFTSDYSKALDEKAAKEFVNWLLDQHPSSGQPPPSC
modifications: bridge 16-20; not fully specified (bridges)
B19: trigonal agonist of SEQ ID NO: 7 (peptide)
peptide: H[Aib]QGTFTSDYSKYLCEKRQKEFVQWLLNGGPSSGAPPPSG
modifications: bridge 16-20; not fully specified (bridges)
B20: trigonal agonist of SEQ ID NO: 37 (peptide)
peptide: [Acetyl(2-(4-imidazolyl))][Aib]QGTFTSDYSKYLDEKRQKEFVNWLLAQC
modifications: bridge 16-20; not fully specified (bridges)
B21: trigonal agonist of SEQ ID NO: 1 (peptide)
peptide: Y[Aib]QGTFTSDYSKYLDECRAKEFVQWLLDHHPSSGQPPPS
modifications: bridge 16-20; not fully specified (bridges)
B22: trigonal agonist of SEQ ID NO: 34 (peptide)
peptide: H[Aib]EGTFTSDYSIAMDEIHQKDFVNWLLAQKC
modifications: lactam 16-20
B23: trigonal agonist of SEQ ID NO: 35 (peptide)
peptide: H[Aib]EGTFTSDYSIAMDEIHQKDFVDWLLAEKC
modifications: bridge 16-20; not fully specified (bridges)

Molecular target: human GCG receptor (human, UniProt P47871 26-477)
Sequence (P47871 26-477): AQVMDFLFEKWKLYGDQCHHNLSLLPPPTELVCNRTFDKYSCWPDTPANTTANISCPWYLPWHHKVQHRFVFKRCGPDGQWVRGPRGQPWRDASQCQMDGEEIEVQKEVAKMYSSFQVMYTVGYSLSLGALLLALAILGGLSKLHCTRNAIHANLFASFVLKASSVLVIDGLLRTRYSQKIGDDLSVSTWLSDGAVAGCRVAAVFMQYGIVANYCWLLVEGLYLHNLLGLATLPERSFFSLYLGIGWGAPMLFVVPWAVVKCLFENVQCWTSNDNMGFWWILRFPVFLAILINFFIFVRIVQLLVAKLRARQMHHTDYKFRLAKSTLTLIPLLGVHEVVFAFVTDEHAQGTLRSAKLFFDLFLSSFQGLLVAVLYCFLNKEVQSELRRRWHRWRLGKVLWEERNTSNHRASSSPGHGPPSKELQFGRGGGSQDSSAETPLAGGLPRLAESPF
Assay: cell-based or functional assay

First: B1
Second: B2
The “In Vitro Activity Compared to Native Peptide (%) vs. Glucagon (relative titer from cAMP EC50)” value of the first is lower: 6.21% for the first, 62.8% for the second.

First: B3
Second: B4
The “In Vitro Activity Compared to Native Peptide (%) vs. Glucagon (relative titer from cAMP EC50)” value of the first is higher: 88.4% for the first, 8.2% for the second.

First: B5
Second: B6
The “In Vitro Activity Compared to Native Peptide (%) vs. Glucagon (relative titer from cAMP EC50)” value of the first is higher: 29.5% for the first, 12.7% for the second.

First: B7
Second: B8
The “In Vitro Activity Compared to Native Peptide (%) vs. Glucagon (relative titer from cAMP EC50)” value of the first is higher: 2.2% for the first, 1.7% for the second.

Going from B9 to B10, the “In Vitro Activity Compared to Native Peptide (%) vs. Glucagon (relative titer from cAMP EC50)” value rises from 16.8% to 206%.

Compared with B11, B12 is lower in “In Vitro Activity Compared to Native Peptide (%) vs. Glucagon (relative titer from cAMP EC50)” value: 0.92% for the first, 0.3% for the second.

First: B13
Second: B14
The “In Vitro Activity Compared to Native Peptide (%) vs. Glucagon (relative titer from cAMP EC50)” value of the first is higher: 195% for the first, 14.9% for the second.

Going from B15 to B16, the “In Vitro Activity Compared to Native Peptide (%) vs. Glucagon (relative titer from cAMP EC50)” value rises from 1.3% to 2%.

Going from B17 to B18, the “In Vitro Activity Compared to Native Peptide (%) vs. Glucagon (relative titer from cAMP EC50)” value falls from 50.5% to 13.9%.

First: B19
Second: B20
The “In Vitro Activity Compared to Native Peptide (%) vs. Glucagon (relative titer from cAMP EC50)” value of the first is lower: 0.39% for the first, 0.4% for the second.

Compared with B21, B22 is lower in “In Vitro Activity Compared to Native Peptide (%) vs. Glucagon (relative titer from cAMP EC50)” value: 267% for the first, 4.9% for the second.

With B23 the “In Vitro Activity Compared to Native Peptide (%) vs. Glucagon (relative titer from cAMP EC50)” value was 0%.

Molecular target: human GLP-1 receptor (human, UniProt P43220 24-463)
Assay: cell-based or functional assay

First: B1
Second: B2
The “In Vitro Activity Compared to Native Peptide (%) vs. GLP-1 (relative titer from cAMP EC50)” value of the first is higher: 236% for the first, 10.5% for the second.

Compared with B3, B4 is higher in “In Vitro Activity Compared to Native Peptide (%) vs. GLP-1 (relative titer from cAMP EC50)” value: 12.6% for the first, 28.1% for the second.

First: B5
Second: B6
The “In Vitro Activity Compared to Native Peptide (%) vs. GLP-1 (relative titer from cAMP EC50)” value of the first is lower: 23.3% for the first, 42.2% for the second.

Going from B7 to B8, the “In Vitro Activity Compared to Native Peptide (%) vs. GLP-1 (relative titer from cAMP EC50)” value rises from 135% to 151%.

First: B9
Second: B10
The “In Vitro Activity Compared to Native Peptide (%) vs. GLP-1 (relative titer from cAMP EC50)” value of the first is lower: 31.9% for the first, 33.9% for the second.

Compared with B11, B12 is lower in “In Vitro Activity Compared to Native Peptide (%) vs. GLP-1 (relative titer from cAMP EC50)” value: 19.1% for the first, 5.7% for the second.

Going from B13 to B14, the “In Vitro Activity Compared to Native Peptide (%) vs. GLP-1 (relative titer from cAMP EC50)” value falls from 34.4% to 20.9%.

Going from B15 to B16, the “In Vitro Activity Compared to Native Peptide (%) vs. GLP-1 (relative titer from cAMP EC50)” value falls from 47.3% to 14.4%.

First: B17
Second: B18
The “In Vitro Activity Compared to Native Peptide (%) vs. GLP-1 (relative titer from cAMP EC50)” value of the first is higher: 67.4% for the first, 23.2% for the second.

Compared with B19, B20 is lower in “In Vitro Activity Compared to Native Peptide (%) vs. GLP-1 (relative titer from cAMP EC50)” value: 37.4% for the first, 28.4% for the second.

Going from B21 to B22, the “In Vitro Activity Compared to Native Peptide (%) vs. GLP-1 (relative titer from cAMP EC50)” value rises from 17.8% to 41.5%.

With B23 the “In Vitro Activity Compared to Native Peptide (%) vs. GLP-1 (relative titer from cAMP EC50)” value was 8.1%.

Molecular target: T1, human GIP receptor
Assay: cell-based or functional assay

First: B1
Second: B2
The “In Vitro Activity Compared to Native Peptide (%) vs. GIP (relative titer from cAMP EC50)” value of the first is lower: 2.2% for the first, 2.6% for the second.

Compared with B3, B4 is higher in “In Vitro Activity Compared to Native Peptide (%) vs. GIP (relative titer from cAMP EC50)” value: 3.7% for the first, 47.1% for the second.

First: B5
Second: B6
The “In Vitro Activity Compared to Native Peptide (%) vs. GIP (relative titer from cAMP EC50)” value of the first is lower: 58% for the first, 118% for the second.

First: B7
Second: B8
The “In Vitro Activity Compared to Native Peptide (%) vs. GIP (relative titer from cAMP EC50)” value of the first is lower: 2.4% for the first, 8.8% for the second.

Going from B9 to B10, the “In Vitro Activity Compared to Native Peptide (%) vs. GIP (relative titer from cAMP EC50)” value rises from 0.3% to 7.8%.

First: B11
Second: B12
The “In Vitro Activity Compared to Native Peptide (%) vs. GIP (relative titer from cAMP EC50)” value of the first is lower: 0.6% for the first, 0.7% for the second.

Compared with B13, B14 is higher in “In Vitro Activity Compared to Native Peptide (%) vs. GIP (relative titer from cAMP EC50)” value: 5.2% for the first, 57.7% for the second.

Compared with B15, B16 is lower in “In Vitro Activity Compared to Native Peptide (%) vs. GIP (relative titer from cAMP EC50)” value: 0.4% for the first, 0.1% for the second.

Going from B17 to B18, the “In Vitro Activity Compared to Native Peptide (%) vs. GIP (relative titer from cAMP EC50)” value rises from 2.7% to 40.1%.

B19 and B20 are the same in “In Vitro Activity Compared to Native Peptide (%) vs. GIP (relative titer from cAMP EC50)” value: 0.2% for the first, 0.2% for the second.

Compared with B21, B22 is lower in “In Vitro Activity Compared to Native Peptide (%) vs. GIP (relative titer from cAMP EC50)” value: 22.7% for the first, 1.4% for the second.

For B23, the “In Vitro Activity Compared to Native Peptide (%) vs. GIP (relative titer from cAMP EC50)” value was 0.1%.
